Measured values taken from US20230348573A1 (KEIO UNIVERSITY, published 2023).

Legend:
[1] = molecular target: T1, full-length spike protein of SARS-CoV-2 (Wuhan strain) (SARS-CoV-2 (Wuhan strain), UniProt P0DTC2 14-1273); experiment: ACE2 competition, spike on 293T cells, antibody 4 µg/mL
T1 construct: whole, on cells; Expressed in 293T cells

[2] = molecular target: T2, RBD derived from SARS-CoV-2 (Wuhan strain) (SARS-CoV-2 (Wuhan strain), UniProt P0DTC2 319-541); experiment: RBD beads, antibody 0.25 µg/mL, then labelled ACE2, flow cytometry
T2 construct: domain: RBD

[3] = molecular target: T2, RBD derived from SARS-CoV-2 (Wuhan …); experiment: RBD beads, antibody 4 µg/mL, then labelled ACE2, flow cytometry
[4] = molecular target: T2, RBD derived from SARS-CoV-2 (Wuhan …); experiment: RBD beads, antibody 1 µg/mL, then labelled ACE2, flow cytometry
[5] = molecular target: spike protein of SARS-CoV-2 (Wuhan strain) on pseudovirus (SARS-CoV-2 (Wuhan strain), UniProt P0DTC2 14-1254); experiment: cell-based or functional assay
[6] = molecular target: T2, RBD derived from SARS-CoV-2 (Wuhan …); experiment: BLI (Octet), RBD of the Wuhan strain

B1: Ab863 (antibody, V domains shown)
VH: EVQLVQSGAEVKKPGASVKVSCQASGYTFITYYMHWVRQAPGQGLEWMGIINPDGGSISYAQKFQGRVTMTRDTSTSTVYMELSSLRSEDTAVYYCARGLSPTFSSSWFDNWGLGTLVTVSS
VL: DVVMTQSPATLSVSPGERATLSCRASQSVSSNLAWYQQKPGQAPRLLIYGASTRDTGIPARFSGSGSGTEFTLTISSLQSEDFAVYFCQQYKNWLLTFGGGTKVEIK
binding amount (%) of ACE2 protein [1]: 1.7%

B2: Ab114 (antibody, V domains shown)
VH: EVQLVESGGGLIQPGGSLRLSCAASGFTVSSNYMNWVRQAPGKGLEWVSVIYSGGSTFYADSVKGRFTISRDNSKNTLYLQMNSLRVEDTAVYYCARDLDTQGGMDVWGQGTTVTVSS
VL: EIVLTQSPGSLSLSPGERATLSCRASQGVSSSYLAWYQHKPGQAPRLLIFGASTRATGIPDRFSGSGSGTDFTLTISRLEPEDFAVYYCQLYGSSPGTFGQGTKLEIK
binding amount (%) of ACE2 protein [1]: 10.9% | fluorescence of ACE2 protein [2]: 3900 | fluorescence of ACE2 protein [3]: 672 | fluorescence of ACE2 protein [4]: 2040

B3: Ab175 (antibody, V domains shown)
VH: EVQLVESGGGLVQPGGSLRLSCAASGIIVSSNYMTWVRQAPGKGLEWVSVLYSGGSTFYADSVKGRFTISRDNSKNMLYLQMNSLRAEDTAVYYCARDLQELGVDCWGQGTLVTVSS
VL: DIQLTQSPSFLSASVGDRVTITCRASQGISSYLAWYQQKPGKAPKLLIYAASTLQSGVPSRFSGSGSGTEFTLTISSLQPEDFATYYCQQLDSYPRFGGGTKVEIK
binding amount (%) of ACE2 protein [1]: 6.9% | fluorescence of ACE2 protein [2]: 1660 | fluorescence of ACE2 protein [4]: 439

B4: Ab816 (antibody, V domains shown)
VH: QVQLVQSGAEVKKPGESLMISCKASGYNFRNYWIAWVRQMPGKGLEWMGIIHPGDSDIRYRPSLQGHVTISADKSITTAYLQWGSLKASDTAMYYCTRITTDADSSGLFHYWGQGTLVTVSS
VL: EIVLTQSPSTLSASVGDRVTITCRASQNIYTWLAWYQRKPGKAPKVLIYKASSLESGVPSRFSGSGSGTEFTLTISSLQPDDFATYYCQQYKSAWSFGQGTKVEIK
binding amount (%) of ACE2 protein [1]: 0.3% | IC50 of pseudovirus infection (luciferase) [5]: 23 ng/mL

B5: Ab712 (antibody, V domains shown)
VH: QVQLVQSGSELKKPGASVKISCKASGYTFINHAINWVRQAPGQGLEWMGWINTNTGNPTYAPGFTGRFVFSLDTSVSTAYLQISSLKAEDTAVYYCARIPIRDYDYDGSGYYYFLDYWGQGTLVTVSS
VL: SYELTQDPAVSVALGQTVRITCQGDSLRSSSASWYQQKPGQAPVLVIYGKTNRPSGIPDRFSGSSSGNTASLTITGAQAEDEADYYCNSRDNSGNHPVVFGGGTKLTVL
binding amount (%) of ACE2 protein [1]: 4.6% | IC50 of pseudovirus infection (luciferase) [5]: 105 ng/mL

B6: Ab847 (antibody, V domains shown)
VH: EVQLVQSGAEVKKPGASVKVSCKASGYTFTSYDIIWVRQATGQGLEWMGWMDPSRGTTGYAQTFQGRVTMTRDTSISTAYLELNSLTSEDTAVYYCVAHIVVLDRWFDPWGQGTLVTVSS
VL: DIVMTQSPSSLSASVGDRVTITCQASQDIGNFLNWCQQKPGQAPKVLIYGASNLETGVPSRFSGSGSGTDFTFTISSLQPEDIATYYCQHYDNFPPRFTFGQGTKLDIK
binding amount (%) of ACE2 protein [1]: 0.3% | IC50 of pseudovirus infection (luciferase) [5]: 40.3 ng/mL

B7: Ab374 (antibody, V domains shown)
VH: EVQLVESGGGLIQPGGSLRLSCVASGFTVSSNYLAWVRQAPGQGLEWVSLIYPGGSTFYADSVKGRFTISRGNSNNTLYLQLNSLRTEDTAVYYCASLYRRGGDSWGQGTLVTVSS
VL: DIQMTQSPSSLSASVGDRVTITCQASQDIRNYLNWYQQKPGKAPKLLIYDASNLQTGVPSRFSGRGSGTDFTFTISSLQAEDIATYYCQQYDNLPITFGQGTRLEIK
binding amount (%) of ACE2 protein [1]: 10.1% | fluorescence of ACE2 protein [2]: 1360 | fluorescence of ACE2 protein [3]: 244 | fluorescence of ACE2 protein [4]: 429

B8: Ab369 (antibody, V domains shown)
VH: QVQLVQSGAEVKKPGASVKVSCKASGYTLTNRAIHWVRQAPGQRLEWMGWINAGKGNTKYSQKFQGRVTITRDTSASTAYMELSSLKSEDTAFYYCATGDGYNYGYDSWGQGTLVTVSS
VL: NFMLTQPPSVSVAPGKTARISCGGTNIGSKSVHWYQQKPGQAPVLVVHDDSDRPSGIPERFSASNSGNTATLTISRVEAGDEADYYCQVWDSTSDLPEVVFGGGTKLTVL
binding amount (%) of ACE2 protein [1]: 4.1% | Kd [6]: 0.197 nM | fluorescence of ACE2 protein [2]: 1640 | fluorescence of ACE2 protein [3]: 107 | fluorescence of ACE2 protein [4]: 430

B9: Ab830 (antibody, V domains shown)
VH: QVQLVQSGAEVKKPGSSVKVSCKTSGGTFTNYTISWVRQAPGQGLEWMGRIIPIFDIVNYAQKFQGRVTITADKSTSTTYMELSSLRSEDTAVYYCARDGVLYDTSGYLYDAFDIWGQGTMVTVSS
VL: DIQMTQSPSSLSASVGDRVTITCRASQGINNYLAWFQQKPGKAPKSLIYAASSLQSGVPPKFSGSGSGTDFTLTISSLQPEDFATYYCLHYNSYPWTFGQGTKVEIK
binding amount (%) of ACE2 protein [1]: 0.9% | IC50 of pseudovirus infection (luciferase) [5]: 34.9 ng/mL

B10: Ab765 (antibody, V domains shown)
VH: QVQLVESGGGVVQPGRSLRLSCAASGFTFSDYAIHWVRQAPGRGLEPVALISYDGNNKYYADSVKGRFTISRDNSKNVLYLQMNSLRADDTAVYYCARDAEGGWVAALDYWGQGTLVTVSS
VL: QSALTQPRSVSGSPGQSVTISCTGTSSDVGGYNYVSWYQHHPGKAPKVMIYEVSKRPSGVPDRFSGSKSGTTASLTISGLQAEDEADYYCCSYAGTYPYVFGTGTKVTVL
binding amount (%) of ACE2 protein [1]: 0.9% | IC50 of pseudovirus infection (luciferase) [5]: 5 ng/mL

B11: Ab176 (antibody, V domains shown)
VH: EVQLVESGGGLVQPGGSLRLSCAASGFTFSSYSMNWVRQAPGKGLEWVSYISGSSSTIYYADSVKGRFTISRDNAKNSLYLQMNSLRAEDTAVYYCVSSEWLLPRFFDYWGQGTLVTVSS
VL: QPVLTQEASVSGTVGQKVTLSCTGNRNNIGSYPVGWYQQISHGAPKTVMFGNSPPSGIPDRFFGSRSGTTASLTISGLQPEDEADYYCSTWDYSLSAVVFGGGTKLTVL
binding amount (%) of ACE2 protein [1]: 8.3% | fluorescence of ACE2 protein [2]: 2660 | fluorescence of ACE2 protein [3]: 366 | fluorescence of ACE2 protein [4]: 1190

B12: Ab376 (antibody, V domains shown)
VH: EVQLVESGGGLVQPGGSLRLSCEASEFTLNSHYMNWVRQAPGKGLEWVSVIYSSGSTYYADSVKGRFTISRHNSKDTLYLQMNSLKPEDTAVYYCARPNYGGNSIWYFDLWGRGTLVTVSS
VL: DIQMTQSPSSVSASVGDRVTITCRASQGIGSWLAWYQQTPGKAPKLLIYAASSLQSGVPSRFSGSGSGTDFTLTISSLQPEDFATYYCQQANSFPLTFGGGTKVEIK
binding amount (%) of ACE2 protein [1]: 5.1% | Kd [6]: 0.11 nM | fluorescence of ACE2 protein [2]: 445 | fluorescence of ACE2 protein [3]: 45 | fluorescence of ACE2 protein [4]: 134

B13: Ab315 (antibody, V domains shown)
VH: EVQLLESGGGLIQPGGSLRLSCAASGLIVSSNYMSWVRQAPGKGLEWVSVIYSGGSTYYADSVKGRFISSRDNSKNTLYLQMNSLRAEDTAVYYCARGELDLPYGMDVWGQGTTVTVSS
VL: QAVVTQPPSVSAAPGQKVTISCSGSSSNIGNNYVSWYQQLPGTAPKLLICDTNKRPSGIPDRFSGSKSGTSATLGITGLQTGDEADYYCGTWDRSLSAGVFGGGTKLTVL
binding amount (%) of ACE2 protein [1]: 5.2% | fluorescence of ACE2 protein [2]: 927 | fluorescence of ACE2 protein [3]: 160 | fluorescence of ACE2 protein [4]: 307

B14: Ab803 (antibody, V domains shown)
VH: EVQLVESGGGLVQPGRSLRVSCAASGFTFDDYAMHWVRQTPRKGLEWVAGISRNSAAIAYADSVKGRFTISRDNAKNSVFLQMNGLRADDTALYYCVKSPRYGWGSPDYSFDFWGRGTLVTVSS
VL: DIQLTQSPSSLSASVGDRVTITCRASQNIGTYLNWYQQEPGKAPKLLIYAASSLQSGVPSRFSGSGSGTDFTLTISSLQPEDFATYCCQQSFTTPLTFGQGTKVEIK
binding amount (%) of ACE2 protein [1]: 0.9% | IC50 of pseudovirus infection (luciferase) [5]: 46.8 ng/mL

B15: Ab302 (antibody, V domains shown)
VH: EVQLVESGGGLVQPGGSLRLSCAASGVIVSRNYMTWVRQAPGKGLEWVSVIYSGGSTFYADSVKGRFTISRDNSKNTLYLQMNSLRAEDTAVYYCARDRGEDVFDIWGQGTMVTVSS
VL: DIQLTQSPSSLSASVGDRVTITCRASQGISSYLAWYQQKPGKAPKLLIYAASTLQSGVPSRFSGSGSGTDFTLTISSLQPEDFATYYCQQLNSYPGYTFGQGTKLEIK
binding amount (%) of ACE2 protein [1]: 4.7% | fluorescence of ACE2 protein [2]: 1400 | fluorescence of ACE2 protein [3]: 189 | fluorescence of ACE2 protein [4]: 372

B16: Ab709TK (antibody, V domains shown)
VH: QVQLVESGGGVVQPGKSLRLSCAASGFTFSSYAMHWVRLAPGKGLEWVAVISPDGKNKYYVDSVKGRSTISRDNSKNTLYLLMNSLRAEDTAVYYCATTQSLWFGQFYYIYGMDVWGQGTTVTVSS
VL: QSVLTQPHSVSESPGKTITISCTGSSGSIASNYVQWYQQRPGSAPTTVIYEDTERPSGVPDRFSGSIDSSSNSASLTISGLKTEDEADYYCQSYDSNNVVFGGGTKLTVL
binding amount (%) of ACE2 protein [1]: 0.6% | IC50 of pseudovirus infection (luciferase) [5]: 71.7 ng/mL
